Test [1] concerns the target MMP-9 (Homo sapiens, UniProt P14780). In words: Solid phase binding assay of synthetic peptides to MMP-9. The settings on record: solid phase binding assays, FIG. 7. How it is done:
For example, synthetic peptides were generated and analyzed for binding activity to MMP-9. The binding ability of the peptides was analyzed by solid phase binding assays.

Test [2] concerns angiogenesis on the CAMs of chick embryos. The test can be described thus: Chick embryo CAM angiogenesis assay (bFGF-induced). It counts as in vivo. The settings on record: 10 day old chick embryos, single IV injection 100 μg 24 h later, counted three days later, FIG. 8B. From the text: For example, one assay measures angiogenesis in the chick chorioallantoic membrane (CAM) and is referred to as the CAM assay. The CAM assay has been described in detail by others, and further has been used to measure both angiogenesis and neovascularization of tumor tissues. See Ausprunk et al., Am. J. Pathol., 79:597-618 (1975) and Ossonski et al., Cancer Res., 40:2300-2309 (1980).
Angiogenesis was induced on the CAMs of 10 day old chick embryos with bFGF. Twenty-four hours later the embryos received a single IV injection with 100 μg of FRIP-1 or AAA control peptide. Three days later angiogenesis was quantified by counting the number of blood vessel branch points within the area of the filter disc. […] FIG. 8B is a quantification of the angiogenesis experiments. […] In FIG. 8B, NT corresponds to No bFGF, FRIP-1 to bFGF+FRIP-1 peptide, and AAA to bFGF+control AAA peptide. Data bars represent the mean±standard errors of 5 to 10 embryos per condition.

“Also recorded” adds a separate entry of the source. Where no end group is shown, it is not given here.

Sequence of MMP-9 (P14780 94-707): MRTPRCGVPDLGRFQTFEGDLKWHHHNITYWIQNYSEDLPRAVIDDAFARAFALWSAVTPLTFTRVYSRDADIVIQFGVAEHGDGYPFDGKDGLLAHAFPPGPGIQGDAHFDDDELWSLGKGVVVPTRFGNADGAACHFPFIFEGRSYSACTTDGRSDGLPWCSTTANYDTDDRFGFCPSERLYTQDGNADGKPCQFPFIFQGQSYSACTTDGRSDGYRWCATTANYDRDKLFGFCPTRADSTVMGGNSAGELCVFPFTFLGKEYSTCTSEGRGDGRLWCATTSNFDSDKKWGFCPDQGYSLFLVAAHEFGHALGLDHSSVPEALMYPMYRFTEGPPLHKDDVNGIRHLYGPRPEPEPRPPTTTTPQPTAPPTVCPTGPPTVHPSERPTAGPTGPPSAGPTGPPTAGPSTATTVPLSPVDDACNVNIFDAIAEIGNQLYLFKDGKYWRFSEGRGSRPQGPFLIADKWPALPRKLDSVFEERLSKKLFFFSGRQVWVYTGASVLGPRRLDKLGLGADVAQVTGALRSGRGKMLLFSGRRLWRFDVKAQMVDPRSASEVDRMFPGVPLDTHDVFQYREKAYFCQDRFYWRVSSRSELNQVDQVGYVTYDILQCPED

As for “CRAAAAEPQC (cysteine pairing not given here) [control peptide, reference compound]”, the “binding to MMP-9” value in test [1] is reported as “binds with substantially reduced affinity”. The same measure, in the same setting: as for “CRAAAGEPQC (cysteine pairing not given here) [control peptide identical to FRIP-1 except that 3 key amino acids were changed, reference compound]”, the entry is “little in any binding ability”.

With “CRLRSGEPQC (cysteine pairing not given here) [synthetic peptide derived from the C-terminal hemopexin-like domain of human MMP-9]”, the “binding to MMP-9” value in test [1] is given as “specifically bind to MMP-9; also recorded: binds to MMP-9”. The “angiogenesis (number of blood vessel branch points within the area of the filter disc)” value in test [2] is “blocks angiogenesis; also recorded: inhibit angiogenesis”.

The values are drawn from patent US7101975B1, “Method and composition for inhibition of angiogenesis using antagonists based on MMP-9 and β1 integrins” (University of Southern California, priority 1999, dated 2006).
